Test results as given in the nanobody polyreactivity screen of Harvey et al. (2022).

Experiment: yeast display, Sf9 membrane polyspecificity reagent, FACS + sequencing; frameworks hold sequencing errors
Method in brief: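 Polyreactivity labels are assigned by the sorting gate from which each nanobody was recovered. The gates were low and high (top ~1%), set on anti-HA fluorescence for expression and streptavidin fluorescence for reagent binding. Before sorting, galactose-induced (36–48 hours) yeast display cells were stained for 1 hour at 4 °C with 10% biotinylated, detergent-solubilized Sf9 membrane reagent.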

QVQLVESGGGLVQAGGSLRLSCAASGSTFSPYAMGCYRQAPGKERELVAAINYSSGSTYYADSVKGRFTISRDNAMNTVYLQLNSLKPEDTAVYYCATGWYAGFTYDYWGQGTQVTVSS
polyreactivity (PSR sort gate): low polyreactivity

QVQLVESGGALVQAGGSLRLSCAASGSTFDANVMGWYRQAPGKERELVAAISRDTNTYYADSVKGRFTISRDNAKNTVYLQMNSLKPEDTAVYYYWGQGTQVTVSS
polyreactivity (PSR sort gate): low polyreactivity

QVQLVESGGGLVQAGGSLRLSCAASGRIFEINARGWYRQAPGKERELVAAITRSGGSTYYADSVKGRFTISRDNAKNTVYFQMNSLTPEDTAVYYCAARGRYWYSRYYSWGQGTQVTVSS
polyreactivity (PSR sort gate): high polyreactivity

QVQLVESGGGLVQAGGSLRLSCAASGSIFDDYGMGWYRQAPGKEWEFVADITSRGTRTYYADSVKGRFTISRDNAKNTVYLQMNCLKPEDTAGYYFNTLVGVDFWLVDYWGQGTQVTLSS
polyreactivity (PSR sort gate): low polyreactivity

QVHLVESGGGLVQAGGSLRLSCAASGSIYHGNAMGWYRQAPGKERELVATISSGGSTYYADSLKVRFTISRDNAKNTVYLQMNSLKPEDTAVYYCAAERFWPYKSYYRGQGTQVTVSS
polyreactivity (PSR sort gate): low polyreactivity

QVQLVESGGGLVQAGGSLRLSCAASGRTFDIYAMGWYRQAPGKERELVAAINRSAGDTYYADSVKGGFTISRDNAKNTVYLQMNSLKPEDTAVYYCNAERVPYVPWLLYTEYVNYVYWGQGTQLTVSS
polyreactivity (PSR sort gate): high polyreactivity

QVQIVESGGCLVQAGGSLRLSCAASGRTFGRNAMGWYRQAPGKERELVAGISIGGGTTYYADSVKGRFTISRDNAKNTVYLQMNSLKPEDTAVYYCAARSWSYLHRYGYWGQGTQVTVSS
polyreactivity (PSR sort gate): high polyreactivity

QVQLVESGGGLVQAGGSLRLSCAASGFIFSRYGMGWYRQAPGKERELVAAISRSGGSTYYADSVKGRFTISRDNAKNTVYLQMNSLKPEDTAVYYCATAYSWRNADWFAYSYDYWGQGTQVTVSS
polyreactivity (PSR sort gate): low polyreactivity

QVQLVETGGGLVQAGGSLRLSCAASGFTFDVYVMGWYRLAPGKERELVAAISWSGDSTYYADSVKGRFTISRDNAKNTVYLQMNSLKPADCAFSFCAAVGYTSRRPVVRYYYWGQGTQVTVSS
polyreactivity (PSR sort gate): high polyreactivity

QVQLVESGGGLVQARGSLRLSCAASGSTFTRYGMGWYRQAPGKERELVAAITTSGSSTYYADSVKGRFTISRDNAKNTVYLQMNSLKPEDTAVYYCAADWSSWGFDYWGQGTQVTLSS
polyreactivity (PSR sort gate): low polyreactivity

QVQLVESGGGLVQAGGSLRLSCAASGNTFDIYAMGWYIQAPGKERELVAAISRRGGSTYYAESVKGRFTISRDNAKNTVYLQLNSLKPEDTAVYYCNTVYATRYDYWGQGTQVTVSS
polyreactivity (PSR sort gate): high polyreactivity

QFQLLDSGGGLVQAGGSLRLSSAPSGFTIIGYDMGWYRQAPVKERELVAAIDWSGGSTYYADSVKGRFTISRDNAKYSVDLQMHSLKPEDTAVYYCNAEWSSKRFTGDDYWGQGTQVTVSS
polyreactivity (PSR sort gate): low polyreactivity

QVQLVESGRGLVQAGGSLRLSCAASGNTFGENAMGWYRKAPGKERELVAAISNGGTTNYADSVKGRFTISRDNAKNSVYLQMNSLKPEDTAVYYCNAKFGISQPGHSGLLKMDYWGQGTQVTVSS
polyreactivity (PSR sort gate): low polyreactivity

QVQLQESGGGLVQAGGSLRLSCAASGSIFKVVDMGLYRQAPGKEREFVATNGEGGNTYSADSVKGRFTISRDNAKNTVYRQMNSLKPEATAVYFYAVVLGTSYRYTYWGQGTQVTVSS
polyreactivity (PSR sort gate): low polyreactivity

QVQLVESGGGLDQAGGSLRLSCAASGSTLGRNAMGWYRQAPGKERELVAAISSSSGRTYYADSVKGRFTISRDNAKNTVYLQMNSLKPEDTAVYYCAATHAVARPLEYDYWGQGTQVTVSS
polyreactivity (PSR sort gate): low polyreactivity

QVQLVESGGGLVQAGASLRLSCAASGSIFSWYTMGWYRQAPGKERELVARITTSGGTTLYADSVKGRFTISRDNAKNTVYFQMNSLKPEDTAVYYCAADRSPYWRGYVRYNYWGQGTQVTVSS
polyreactivity (PSR sort gate): high polyreactivity

QVQLVESGGGSVQAGGSLRLSCAASGSTFQYYDMGWYRQAPGKERELVASITGSGDSTYYADSVKGRFTISRDNAKNTVYLQLNSLKPEDTAVYYCAAQNTWSGDYDYWGQGTQVTVSS
polyreactivity (PSR sort gate): low polyreactivity

QVQLVESGGGLVQAGGSLRLSCAASGSTFYVNAMGWYRQAPGKDRELVAVISTGGSTYYADSVKGRFTISRDNAKNTVYLQMNSLKPEDTAVYYCAKRDLPDRSGTPNVIPFDYWGQGTQVTVSS
polyreactivity (PSR sort gate): low polyreactivity

QVQLVESGGGLVQAGGSLRLSCAASGLTFRANDMGWYRQAPGKERELVAGITESGDSTYYADSVKGRFTISRDNAKNTVYLQMNSLKPEDTAVYYCAAGSYYWYWYRVGEWYAYEYWGQGTQVTVSS
polyreactivity (PSR sort gate): low polyreactivity

QVQLVESGGGLVQAGGSLRLSCAASGFIFGYNAMGWDRQAPGKERELVAAITRSGGRTYYADSVKGRFTISRDNAKNTVSLQMNSLKPEDTAVYYCAASRFATYPRWYDYWGQGTQVTVSS
polyreactivity (PSR sort gate): low polyreactivity

QVQLVESGGGLVQAGGSLRLSCAASGRIFRYNTMGWYRQAPGKERELVADITSSDSSTYYADSVKGRFTISRDNAKNTVYLQMNSLKPEDTAVYYCAARDSGYGWRYYYWGQGTQVTVSS
polyreactivity (PSR sort gate): low polyreactivity

QVQLVESGGGLVQAGGSLRLSCAASGRTFYRYAMGWYRQAPGKERELVAAIRWSGGSTYYADSVKGRFTISRDNAKNTVYLQMNSLKPEDTAVYYCAARAIQLVDGRYKVRMDYWGQGTQVTVSS
polyreactivity (PSR sort gate): low polyreactivity

QVQLVESGGGLVQAGGSLRLSCAASGRIFSRNAMGWYRQAPGKEWELVARITVTVGSTYYADSVKGRFTISRDNAKNTVYLQMNSLKPEDTAVYYCAADAGYRYDCPYNYYYWGQGTQVTVSS
polyreactivity (PSR sort gate): low polyreactivity

QVQLVESGGGLVQAGGSLRLSCAASGFTFSTNAMGWYRQAPGKETELVAGITSSGGNTYYADSVKGRFTISRDNAKNTVYLQMNSLKPEDTAVYYCAKRRNYVAYDYWGQGTQVTVSS
polyreactivity (PSR sort gate): high polyreactivity

QVQLVESGGGLVQAGGSLRLSCAASGRIFPDNTMGWYRQAPGKERELVAVITYSGGSTYYADSVKGRFTISRDNAKNTVYLQMNSLKPEDTAVYYCARDDATAGDYWGQGTQVTVSS
polyreactivity (PSR sort gate): low polyreactivity

QVQLVESVGGLVQAGGSLRLSCAASALTFQNNAMGWYRQAPGKEREFVATITSVGRTNYADSVKGRFTISRDNAKNTVYLQMNSLNPEDTAVYYCAASKARWPRGGSKYYYWGQGTQVTVSS
polyreactivity (PSR sort gate): high polyreactivity

QVQLVESGGGLVQAGGSLRLSCAASGSTFRWYAMGWYRQAPGKERELVAAISARGTSTYYADSVKGRFTISRDNAKNTVYLQMNSLKPEDTAVYYCAATRTYQLYRWAPRYYYWGQGTQVTVSS
polyreactivity (PSR sort gate): high polyreactivity

QVQLVESGGGLVQAGGSLRLSCAASGSTFYYYAMGWYRQAPGKERELVAAISISDNSTYYADSVKGRFTISRDNAKNTVYLQMNSLKPEDTAVYYCAAYGWYAHDDSTYDYWGQGTQVTVSS
polyreactivity (PSR sort gate): low polyreactivity

QVQLVESGGGLVQAGGSLRVSCAASGYTFLRYAMGWYRQAPGKERELVAAISWSTGSTYYADSVKGRFTISRDNAKNTVYLQMNSLKPEDTAVYYCAAAGRHSGGRFYYWGQGTQVTVSS
polyreactivity (PSR sort gate): high polyreactivity

QVQLVESGGGLVQAGGSLRLSCAASGLTFYKNAMGWYRQAPGKERELVAVISSSGGSTYYADSVKGRFTISRDNAKNTVYLQMYSLKPEDSAVYYFARDLYTEYRWGRLTYDYRGQGTQVTVSS
polyreactivity (PSR sort gate): low polyreactivity

QVQLVESGGGLVQAGGSLRLSCAASGRIFSVYSMGWYRQAPGKERELVAAIRSGDRTNYADSVKGRFTISRDNAKNTVYLQMISLKPEVTAVYYCAAVRYPNWYDYWGHGTQVTVSS
polyreactivity (PSR sort gate): high polyreactivity

QVQHVESGGGLVQAGGSLRLSCAASGLTSVINAMGWYRQAPGKERELVAAMTNGGSTSYADSVKGRFTISRDNAKNPVYLQMNSLKPEDTAVYYWAADIVSSTDYPFDYWGQGTQVTVSS
polyreactivity (PSR sort gate): low polyreactivity
